Assays:
[1] = target: Glyceraldehyde-3-phosphate dehydrogenase (encoded by GAPDH) (UniProt P04406)
[2] = target: Alpha-enolase (encoded by ENO1) (UniProt P06733)
[3] = target: T1, Phosphoglycerate kinase 1 (encoded by PGK1) (UniProt P00558)
T1 sequence: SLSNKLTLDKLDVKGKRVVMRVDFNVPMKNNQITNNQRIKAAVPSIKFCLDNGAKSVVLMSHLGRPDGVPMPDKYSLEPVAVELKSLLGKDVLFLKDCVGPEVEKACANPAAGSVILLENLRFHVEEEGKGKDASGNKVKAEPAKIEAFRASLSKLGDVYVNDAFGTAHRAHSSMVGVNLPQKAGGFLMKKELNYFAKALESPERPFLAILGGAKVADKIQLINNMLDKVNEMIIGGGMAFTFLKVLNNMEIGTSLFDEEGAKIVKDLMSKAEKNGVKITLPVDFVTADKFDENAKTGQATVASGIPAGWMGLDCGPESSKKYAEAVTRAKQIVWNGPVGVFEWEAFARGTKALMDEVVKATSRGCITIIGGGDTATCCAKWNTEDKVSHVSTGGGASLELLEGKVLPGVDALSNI

[4] = target: T2, Fructose-bisphosphate aldolase A (encoded by ALDOA) (UniProt P04075)
T2 sequence: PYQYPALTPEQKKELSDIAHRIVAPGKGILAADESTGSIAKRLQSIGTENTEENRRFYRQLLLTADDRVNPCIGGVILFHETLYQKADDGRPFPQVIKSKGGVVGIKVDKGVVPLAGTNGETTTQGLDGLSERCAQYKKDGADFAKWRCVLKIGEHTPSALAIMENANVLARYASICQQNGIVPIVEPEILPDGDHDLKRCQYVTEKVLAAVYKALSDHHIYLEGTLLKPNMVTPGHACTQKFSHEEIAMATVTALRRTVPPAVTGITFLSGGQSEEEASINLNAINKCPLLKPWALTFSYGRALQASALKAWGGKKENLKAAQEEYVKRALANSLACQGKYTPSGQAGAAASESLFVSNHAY

Chain of Glyceraldehyde-3-phosphate dehydrogenase (encoded by GAPDH) (P04406 2-335): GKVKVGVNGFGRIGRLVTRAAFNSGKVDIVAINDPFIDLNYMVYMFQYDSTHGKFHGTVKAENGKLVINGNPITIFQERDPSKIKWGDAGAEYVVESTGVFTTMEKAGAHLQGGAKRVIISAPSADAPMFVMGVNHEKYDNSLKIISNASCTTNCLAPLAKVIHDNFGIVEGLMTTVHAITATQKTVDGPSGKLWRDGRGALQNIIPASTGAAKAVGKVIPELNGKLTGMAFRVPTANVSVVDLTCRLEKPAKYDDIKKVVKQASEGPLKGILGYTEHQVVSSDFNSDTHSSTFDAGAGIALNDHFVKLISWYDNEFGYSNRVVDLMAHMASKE
Chain of Alpha-enolase (encoded by ENO1) (P06733 2-434): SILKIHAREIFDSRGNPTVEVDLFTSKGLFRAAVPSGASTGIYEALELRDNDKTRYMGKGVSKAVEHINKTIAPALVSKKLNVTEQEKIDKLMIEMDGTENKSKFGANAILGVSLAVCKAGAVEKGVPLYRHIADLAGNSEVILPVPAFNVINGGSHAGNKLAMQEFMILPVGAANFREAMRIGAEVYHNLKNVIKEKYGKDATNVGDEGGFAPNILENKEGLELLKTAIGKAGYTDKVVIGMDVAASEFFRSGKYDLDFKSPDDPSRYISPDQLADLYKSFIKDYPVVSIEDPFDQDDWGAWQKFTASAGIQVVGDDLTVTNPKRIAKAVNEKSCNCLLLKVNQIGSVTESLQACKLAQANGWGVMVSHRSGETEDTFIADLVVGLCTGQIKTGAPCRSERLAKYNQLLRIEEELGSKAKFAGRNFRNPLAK

Substance: Sirtuin 2 (SIRT2), human
- acetylation level (IP with specific antibody, western blot with anti-acetyl-Lys, and the reverse) [1]: forced expression of SIRT2 in hESCs prominently deacetylated all four enzymes tested (aldolase, PGK1, enolase, and GAPDH)
- acetylation level after SIRT2 knockdown in hDFs (IP, western blot with anti-acetyl-Lys) [1]: Acetylation levels of aldolase, enolase, PGK1 and GAPDH were substantially increased in SIRT2 KD fibroblasts
- acetylation level (IP with specific antibody, western blot with anti-acetyl-Lys, and the reverse) [2]: forced expression of SIRT2 in hESCs prominently deacetylated all four enzymes tested (aldolase, PGK1, enolase, and GAPDH)
- acetylation level after SIRT2 knockdown in hDFs (IP, western blot with anti-acetyl-Lys) [2]: Acetylation levels of aldolase, enolase, PGK1 and GAPDH were substantially increased in SIRT2 KD fibroblasts
- acetylation level (IP with specific antibody, western blot with anti-acetyl-Lys, and the reverse) [3]: forced expression of SIRT2 in hESCs prominently deacetylated all four enzymes tested (aldolase, PGK1, enolase, and GAPDH)
- acetylation level after SIRT2 knockdown in hDFs (IP, western blot with anti-acetyl-Lys) [3]: Acetylation levels of aldolase, enolase, PGK1 and GAPDH were substantially increased in SIRT2 KD fibroblasts
- acetylation level (IP with specific antibody, western blot with anti-acetyl-Lys, and the reverse) [4]: forced expression of SIRT2 in hESCs prominently deacetylated all four enzymes tested (aldolase, PGK1, enolase, and GAPDH)
- acetylation level after SIRT2 knockdown in hDFs (IP, western blot with anti-acetyl-Lys) [4]: Acetylation levels of aldolase, enolase, PGK1 and GAPDH were substantially increased in SIRT2 KD fibroblasts
